Measured values reported in patent US11168320.

Target: Thrombin (UniProt P00734+P00734)
Experiment: EMSA
Details: 0.1 nM aptamer, thrombin 0.1-12.8 nM; more than half bound at 0.1 nM thrombin

NTAGGDTGGGTAGGGTGGTNAGGGWTGATGYGTGGTAGGC [Bivalent aptamer AD]
Kd: < 0.1 nM
